Laboratory results: patent publication US20020001806A1, “Caspase-3s splicing variant” (priority 2000, published 2002)
“Also recorded” adds a separate entry of the source.

B1: caspase-3: full length caspase-3 (32 kDa) cDNA in pcDNA3 vector transfected into 293 cells (protein, UniProt P42574 1-277, looked up)
chain: MENTENSVDSKSIKNLEPKIIHGSESMDSGISLDNSYKMDYPEMGLCIIINNKNFHKSTGMTSRSGTDVDAANLRETFRNLKYEVRNKNDLTREEIVELMRDVSKEDHSKRSSFVCVLLSHGEEGIIFGTNGPVDLKKITNFFRGDRCRSLTGKPKLFIIQACRGTELDCGIETDSGVDDDMACHKIPVEADFLYAYSTAPGYYSWRNSKDGSWFIQSLCAMLKQYADKLEFMHILTRVNRKVATEFESFSFDATFHAKKQIPCIVSMLTKELYFYH
modifications: full-length
notes: full length caspase-3 (32 kDa) cDNA in pcDNA3 vector transfected into 293 cells
B2: caspase-3s: novel splicing variant of caspase-3, C-terminal truncated, 182 amino acids (SEQ ID No. 2); tested as transfected pcDNA3 cDNA construct (protein, listed as Homo sapiens)
chain: MENTENSVDSKSIKNLEPKIIHGSESMDSGISLDNSYKMDYPEMGLCIIINNKNFHKSTGMTSRSGTDVDAANLRETFRNLKYEVRNKNDLTREEIVELMRDVSKEDHSKRSSFVCVLLSHGEEGIIFGTNGPVDLKKITNFFRGDRCRSLTGKPKLFIIQVIILGEIQRMAPGSSSRFVPC

Key:
Assay type in all cases: cell-based, human
[1] = tested on: caspase-3 and caspase-3s expression; experiment: Western blot (anti-flag) of recombinant caspase-3 and caspase-3s in transfected 293 cells after IGAL treatment; settings: IGAL treatment 16 hours
Procedure: (§1) FIG. 6. A. 293 cells were transfected with flag-tagged caspase-3, flag-tagged caspase-3s or pcDNA3 vector, followed by IGAL treatment for 16 hours or left untreated (control). Fifty microgram of total cellular protein was assayed for caspase-3 and caspase-3s expression using antibody specific for flag-tag. The asterisk (*) indicates the N-terminal flag-tag containing activated capase-3 (20 kDa). The uppermost and lowest short arrow denote the two additional bands, 40 kDa and 14 kDa, respectively. […] 293 cells were treated with 5 μM IGAL for 48 hours. Total cell lysates were isolated and assayed for caspase-3 expression by Western blotting. The blot was probed with anticaspase-3 antibody (Pharmingen). […]
Proteasome appears to regulate caspase-3 potentially in two ways. […] To examine the effects of proteasome inhibitor on the expression of caspase-3 and caspase-3s, total cellular protein from transfected 293 cells treated with proteasome inhibitor IGAL were analyzed by Western blotting probed with the N-terminal antiflag antibody. […] In addition, we reproducibly detected two additional bands with a size of 40 kDa and 14 kDa, respectively, after IGAL treatment (FIG. 6B, lane 6). […]

endogenous caspase-3 = experiment: Western blot (anti-caspase-3) of endogenous caspase-3 in untransfected 293 cells after IGAL treatment; settings: 5 μM IGAL, 48 hours
Procedure: as §1
Evidence that the levels of endogenous caspase-3 and caspase-3s are regulated by proteasome degradation was also sought. Untransfected 293 cells were subjected to IGAL treatment and the cell samples were analyzed on Western blots probed with anticapase-3 antibody (Pharmingen). […] In parallel, a faint immunoreactive band of 20 kDa (p20) was detected only in the presence of IGAL treatment (FIG. 6B).

293 cells [2] = experiment: Cytotox 96 colorimetric LDH release cytotoxicity assay in transfected 293 cells; settings: for apoptosis / cell death (LDH release) induced by proteasome inhibitor I: 5 μM proteasome inhibitor I, 12 hours, vs vector
Procedure: The following experiments were performed to test the hypothesis that caspase-3s acts as a dominant negative isoform of caspase-3. The pcDNA empty vector, caspase-3, and caspase-3s constructs were transfected into 293 cells using the method described above (Sun et al., Supra., 1997). After 6 to 7 hours transfection, transfection medium was replaced with fresh medium containing 5 μM of proteasome inhibitor I (Z-Ile-Glu(otBu)-Ala-Leu-CHO) (Calbiochem). Cells were then incubated for 12 hours. Twenty-five microliter of the culture medium was subjected to cytotoxicity assay using the Cytotox 96 colorimetric LDH assay kit (Promega) according to manufacturer's instruction. Statistics were performed with t-test using Microsoft Excel analysis tools.
For control cells, lactate dehydrogenase (LDH) release in caspase-3 transfected cells was compared with both vector and caspase-3s transfected cells. For proteasome inhibitor treated cells, LDH release was compared between vector and caspase-3s transfected cells.

293 cells [3] = experiment: DNA fragmentation ELISA (Cell Death Detection ELISA) in transfected 293 cells; settings: for apoptosis induced by staurosporine (DNA fragmentation): 0.5 μM staurosporine, 20 hours; for DNA fragmentation (basal apoptosis): untreated, vs vector and caspase-3s
Procedure: (§2) Human embryonal kidney 293 cells were seeded 1×10^5 into each well of a 24-well plate and transfected with caspase-3 and caspase-3s cDNA constructs by calcium phosphate method (Sun Y., Bian J., Wang Y., Jacobs C. Oncogene 1997;14:385-93;14: 385-393). Briefly, 500 nanogram of DNA was incubated in 0.25 M CaCl2 solution for 10 minutes at room temperature. The mixture was then incubated with 1×HEPES buffer (pH 6.88) for 15 minutes at room temperature before being added to the culture medium. After 6 to 7 hours transfection, transfection medium was replaced with fresh Opti-MEMI medium (GIBCO) containing 5 μM of Proteasome Inhibitor I (Z-Ile-Glu(otBu)-Ala-Leu-CHO) (Calbiochem) and incubated for 16 hours. For staurosporine treatment, cells were allowed to grow for 24 hours in serum containing medium after transfection. Cells then incubated with 0.5 μM staurosporine (Calbiochem) in Opti-MEMI medium for 20 hours.
DNA fragmentation ELISA was performed using the Cell Death Detection ELISA kit (Boehringer Mannheim) following the instruction provided by the supplier. Briefly, after 16 hours treatment with IGAL (Proteasome Inhibitor I), 293 cells were lysed by incubation with 500 μL of cell lysis buffer for 2 hours at room temperature. The lysate were then centrifuged at 200×g for 10 minutes. Twenty microliter of the supernatant were transferred into the streptavidin coated microtiter plate for analysis using the reagents provided with the assay kit. Statistical analyses were performed with student t-test using Microsoft Excel analysis tools.

PARP = PARP cleavage to 85 kDa breakdown product by Western blot in transfected 293 cells; settings: for PARP cleavage (Western blot): IGAL treatment 16 hours, vs vector control; for PARP breakdown product (85 kDa), densitometric quantification: normalized to vector control, n=8
Procedure: as §2
Preparation of whole cell lysates and Western blotting were performed as previously described (McGinnis K. M., Gnegy M. E., Wang K. K. W. Endogenous bax translocation in SH-SY5Y human neuroblastoma cells and cerebellar granule neurons undergoing apoptosis. J. Neurochem. 1999;72:1899-1906; Huang Y., Domann F. E. Transcription factor AP-2 mRNA and DNA binding activity are constitutively expressed in SV40-immortalized but not normal human lung fibroblasts. Arch. Biochem. Biophys. 1999;364: 241-246). The blots were probed with antihuman caspase-3 p20 goat polyclonal antibody (Santa Cruz, CAT #sc-1226), antihuman caspase-3 rabbit polyclonal antibody (Pharmingen, CAT #65906E), antiflag monoclonal antibody (Sigma, CAT #F3165), or antihuman monoclonal PAPR antibody (Biomol Research Laboratories, Inc CAT #SA-250).
It is known that cleavage of caspase-3 substrates, such as poly(ADP)ribose polymerase (PARP), is prerequisite for apoptosis. Therefore, the effects of caspase-3s overexpression on PARP cleavage in both control and IGAL treated 293 was examined, along with caspase-3 overexpression as positive control. Cleavage of PARP to an immunoreactive breakdown product (85 kDa) was measured by Western blot.

| Molecule | amount of recombinant caspase-3s ([1]; flag-tagged caspase-3s transfected 293 cells) | abundance of recombinant full length caspase-3 (32 kDa band) ([1]; flag-tagged caspase-3 transfected 293 cells) | endogenous activated caspase-3 (p17) (endogenous caspase-3) | levels of endogenous full-length caspase-3 (p32) (endogenous caspase-3) | apoptosis / cell death (LDH release) induced by proteasome inhibitor I (293 cells [2]) | apoptosis (LDH release) (293 cells [2]; untreated condition, vs vector and caspase-3s transfected cells) | apoptosis induced by staurosporine (DNA fragmentation) (293 cells [3]) | DNA fragmentation (basal apoptosis) (293 cells [3]) | DNA fragmentation (basal apoptosis) (293 cells [3]; listed as capase-3) | PARP cleavage (Western blot) (PARP) | basal PARP cleavage (Western blot) (PARP; nontreated) | PARP breakdown product (85 kDa), densitometric quantification (PARP) | apoptosis / cell death (LDH release) induced by proteasome inhibitor I (293 cells [2]; listed as Caspase-3s) | DNA fragmentation (apoptosis) induced by IGAL (293 cells [3]; 5 μM IGAL, 16 hours, vs vector control and caspase-3, n=4) | PARP cleavage (Western blot) (PARP; listed as Caspase-3s) |
| --- | --- | --- | --- | --- | --- | --- | --- | --- | --- | --- | --- | --- | --- | --- | --- |
| Z-Ile-Glu(otBu)-Ala-Leu-CHO [IGAL] | dramatic increase | decrease in the abundance | appearance of the 17 kDa activated caspase-3 (p17) | remain the same; also recorded: stabilized endogenous caspase-3 expression | – | – | – | – | – | – | – | – | – | – | – |
| B1 | – | – | – | – | underwent substantial apoptosis | significantly increased apoptosis | did not reduce | significantly increased DNA fragmentation | induced basal apoptosis | enhanced by IGAL treatment | increased basal PARP cleavage | increased PARP cleavage | – | – | – |
| B2 | – | – | – | – | significantly inhibited; also recorded: inhibits apoptotic cell death | – | no significant effect | – | – | partially but significantly inhibited the cleavage of PARP | – | significantly decreased | inhibits cell death | partially but significantly inhibited apoptosis; also recorded: significantly (# p<0.05) inhibited DNA fragmentation | partially inhibited PARP cleavage |
